The labels stand for the following.
T1: human TL1A (Fitzgerald, Prod. #30R-AT070) (human, UniProt O95150 72-251, limits assumed, biotinylated with EZ-Link Sulfo-NHS-LC-Biotin where used as soluble antigen)
T1 construct: also called TNFSF15; biotinylated human TL1A
T1 sequence (looked up): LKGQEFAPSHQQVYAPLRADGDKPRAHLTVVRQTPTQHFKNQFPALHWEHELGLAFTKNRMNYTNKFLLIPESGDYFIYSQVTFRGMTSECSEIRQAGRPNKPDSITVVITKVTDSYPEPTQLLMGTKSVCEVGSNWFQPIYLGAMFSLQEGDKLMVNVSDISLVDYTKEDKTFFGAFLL

B1: clone 3-4 Fab (12835 framework variant) (Fab, V domains shown)
VH: QVQLVQSGAEVKKPGASVKLSCKASGFDIQDTYMHWVRQAPGQGLEWMGRIDPASGHTKYDPKFQVRVTMTTDTSTSTVYMELSSLRSEDTAVYYCSRSGGLPDVWGQGTTVTVSS
VL: EIVLTQSPGTLSLSPGERATLSCRASSSVSYMYWYQQKPGQAPRPWIYATSNLASGVPDRFSGSGSGTDFTLTISRLEPEDFAVYYCQQWSGNPRTFGGGTKLEIK
notes: Fab
B2: clone 27 Fab (12835 framework variant) (Fab, V domains shown)
VH: QVQLVQSGAEVKKPGASVKVSCKASGFDIQDTYMHWVRQAPGQGLEWMGRIDPASGHTKYDPKFQVRVTMTTDTSTSTVYMELSSLRSEDTAVYYCSRSGGLPDVWGQGTTVTVSS
VL: EIVLTQSPGTLSLSPGERATLSCRASSSVSYMYWYQQKPGQAPRPLIYATSNLASGVPDRFSGSGSGTDYTLTISRLEPEDFAVYYCQQWSGNPRTFGGGTKLEIK
notes: Fab
B3: clone 5-2 Fab (12835 framework variant) (Fab, V domains shown)
VH: QVQLVQSGAEVKKPGASVKLSCKASGFDIQDTYMHWVRQAPGQGLEWMGRIDPASGHTKYDPKFQVRVTMTRDTSTSTVYMELSSLRSEDTAVYYCSRSGGLPDVWGQGTTVTVSS
VL: EIVLTQSPGTLSLSPGERVTMSCRASSSVSYMYWYQQKPGQAPRPWIYATSNLASGVPDRFSGSGSGTDYTLTISRLEPEDFAVYYCQQWSGNPRTFGGGTKLEIK
notes: Fab
B4: clone 17-2 Fab (12835 framework variant) (Fab, V domains shown)
VH: QVQLVQSGAEVKKPGASVKLSCKASGFDIQDTYMHWVRQAPGQGLEWMGRIDPASGHTKYDPKFQVRVTMTRDTSTSTVYMELSSLRSEDTAVYYCSRSGGLPDVWGQGTTVTVSS
VL: EIVLTQSPGTLSLSPGERATLSCRASSSVSYMYWYQQKPGQAPRLLIYATSNLASGVPDRFSGSGSGTDFTLTISRLEPEDFAVYYCQQWSGNPRTFGGGTKLEIK
notes: Fab
B5: clone 9-1 Fab (12835 framework variant) (Fab, V domains shown)
VH: QVQLVQSGAEVKKPGASVKLSCKASGFDIQDTYMHWVRQAPGQGLEWMGRIDPASGHTKYDPKFQVRVTMTRDTSTSTVYMELSSLRSEDTAVYYCSRSGGLPDVWGQGTTVTVSS
VL: EIVLTQSPGTLSLSPGERATLSCRASSSVSYMYWYQQKPGQAPRPWIYATSNLASGVPDRFSGSGSGTDFTLTISRLEPEDFAVYYCQQWSGNPRTFGGGTKLEIK
notes: Fab
B6: clone 19-5 Fab (12835 framework variant) (Fab, V domains shown)
VH: QVQLVQSGAEVKKPGASVKVSCKASGFDIQDTYMHWVRQAPGQGLEWMGRIDPASGHTKYDPKFQVRVTMTRDTSTSTVYMELSSLRSEDTAVYYCSRSGGLPDVWGQGTTVTVSS
VL: EIVLTQSPGTLSLSPGERATLSCRASSSVSYMYWYQQKPGQAPRLLIYATSNLASGVPDRFSGSGSGTDYTLTISRLEPEDFAVYYCQQWSGNPRTFGGGTKLEIK
notes: Fab
B7: clone 22 Fab (12835 framework variant) (Fab, V domains shown)
VH: QVQLVQSGAEVKKPGASVKLSCKASGFDIQDTYMHWVRQAPGQGLEWMGRIDPASGHTKYDPKFQVRVTMTTDTSTSTVYMELSSLRSEDTAVYYCSRSGGLPDVWGQGTTVTVSS
VL: EIVLTQSPGTLSLSPGERVTMSCRASSSVSYMYWYQQKPGQAPRPWIYATSNLASGVPDRFSGSGSGTDFTLTISRLEPEDFAVYYCQQWSGNPRTFGGGTKLEIK
notes: Fab
B8: clone 7-4 Fab (12835 framework variant) (Fab, V domains shown)
VH: QVQLVQSGAEVKKPGASVKLSCKASGFDIQDTYMHWVRQAPGQGLEWMGRIDPASGHTKYDPKFQVRVTMTTDTSTSTVYMELSSLRSEDTAVYYCSRSGGLPDVWGQGTTVTVSS
VL: EIVLTQSPGTLSLSPGERATLSCRASSSVSYMYWYQQKPGQAPRLWIYATSNLASGVPDRFSGSGSGTDYTLTISRLEPEDFAVYYCQQWSGNPRTFGGGTKLEIK
notes: Fab
B9: clone 19 Fab (12835 framework variant) (Fab, V domains shown)
VH: QVQLVQSGAEVKKPGASVKLSCKASGFDIQDTYMHWVRQAPGQGLEWMGRIDPASGHTKYDPKFQVRVTMTTDTSTSTVYMELSSLRSEDTAVYYCSRSGGLPDVWGQGTTVTVSS
VL: EIVLTQSPGTLSLSPGERATLSCRASSSVSYMYWYQQKPGQAPRLLIYATSNLASGIPDRFSGSGSGTDYTLTISRLEPEDFAVYYCQQWSGNPRTFGGGTKLEIK
notes: Fab
B10: clone 10-1 Fab (12835 framework variant) (Fab, V domains shown)
VH: QVQLVQSGAEVKKPGASVKLSCKASGFDIQDTYMHWVRQAPGQGLEWMGRIDPASGHTKYDPKFQVRVTMTRDTSTSTVYMELSSLRSEDTAVYYCSRSGGLPDVWGQGTTVTVSS
VL: EIVLTQSPGTLSLSPGERATLSCRASSSVSYMYWYQQKPGQAPRLLIYATSNLASGVPDRFSGSGSGTDYTLTISRLEPEDFAVYYCQQWSGNPRTFGGGTKLEIK
notes: Fab
B11: clone 5-4 Fab (12835 framework variant) (Fab, V domains shown)
VH: QVQLVQSGAEVKKPGASVKLSCKASGFDIQDTYMHWVRQAPGQGLEWMGRIDPASGHTKYDPKFQVRVTMTTDTSTSTVYMELSSLRSEDTAVYYCSRSGGLPDVWGQGTTVTVSS
VL: EIVLTQSPGTLSLSPGERATLSCRASSSVSYMYWYQQKPGQAPRPWIYATSNLASGVPDRFSGSGSGTDYTLTISRLEPEDFAVYYCQQWSGNPRTFGGGTKLEIK
notes: Fab
B12: clone 26 Fab (12835 framework variant) (Fab, V domains shown)
VH: QVQLVQSGAEVKKPGASVKVSCKASGFDIQDTYMHWVRQAPGQGLEWMGRIDPASGHTKYDPKFQVRVTMTTDTSTSTVYMELSSLRSEDTAVYYCSRSGGLPDVWGQGTTVTVSS
VL: EIVLTQSPGTLSLSPGERATLSCRASSSVSYMYWYQQKPGQAPRPWIYATSNLASGVPDRFSGSGSGTDYTLTISRLEPEDFAVYYCQQWSGNPRTFGGGTKLEIK
notes: Fab
B13: clone 5-1 Fab (12835 framework variant) (Fab, V domains shown)
VH: QVQLVQSGAEVKKPGASVKLSCKASGFDIQDTYMHWVRQAPGQGLEWMGRIDPASGHTKYDPKFQVRVTMTRDTSTSTVYMELSSLRSEDTAVYYCSRSGGLPDVWGQGTTVTVSS
VL: EIVLTQSPGTLSLSPGERATLSCRASSSVSYMYWYQQKPGQAPRPWIYATSNLASGVPDRFSGSGSGTDYTLTISRLEPEDFAVYYCQQWSGNPRTFGGGTKLEIK
notes: Fab
B14: clone 16-2 Fab (12835 framework variant) (Fab, V domains shown)
VH: QVQLVQSGAEVKKPGASVKLSCKASGFDIQDTYMHWVRQAPGQGLEWMGRIDPASGHTKYDPKFQVRVTMTRDTSTSTVYMELSSLRSEDTAVYYCSRSGGLPDVWGQGTTVTVSS
VL: EIVLTQSPGTLSLSPGERATLSCRASSSVSYMYWYQQKPGQAPRLLIYATSNLASGIPDRFSGSGSGTDYTLTISRLEPEDFAVYYCQQWSGNPRTFGGGTKLEIK
notes: Fab
B15: clone 20-7 Fab (12835 framework variant) (Fab, V domains shown)
VH: QVQLVQSGAEVKKPGASVKLSCKASGFDIQDTYMHWVRQAPGQGLEWMGRIDPASGHTKYDPKFQVRVTMTRDTSTSTVYMELSSLRSEDTAVYYCARSGGLPDVWGQGTTVTVSS
VL: EIVLTQSPGTLSLSPGERATLSCRASSSVSYMYWYQQKPGQAPRLLIYATSNLASGVPDRFSGSGSGTDYTLTISRLEPEDFAVYYCQQWSGNPRTFGGGTKLEIK
notes: Fab
B16: clone 21 Fab (12835 framework variant) (Fab, V domains shown)
VH: QVQLVQSGAEVKKPGASVKLSCKASGFDIQDTYMHWVRQAPGQGLEWMGRIDPASGHTKYDPKFQVRVTMTTDTSTSTVYMELSSLRSEDTAVYYCSRSGGLPDVWGQGTTVTVSS
VL: EIVLTQSPGTLSLSPGERATLSCRASSSVSYMYWYQQKPGQAPRLWIYATSNLASGIPDRFSGSGSGTDYTLTISRLEPEDFAVYYCQQWSGNPRTFGGGTKLEIK
notes: Fab
B17: clone 13-2 Fab (12835 framework variant) (Fab, V domains shown)
VH: QVQLVQSGAEVKKPGASVKLSCKASGFDIQDTYMHWVRQAPGQGLEWMGRIDPASGHTKYDPKFQVRVTMTRDTSTSTVYMELSSLRSEDTAVYYCARSGGLPDVWGQGTTVTVSS
VL: EIVLTQSPGTLSLSPGERATLSCRASSSVSYMYWYQQKPGQAPRPWIYATSNLASGVPDRFSGSGSGTDYTLTISRLEPEDFAVYYCQQWSGNPRTFGGGTKLEIK
notes: Fab

This is an account of results in patent US20240368263A1 (PROMETHEUS BIOSCIENCES, published 2024).

For the experiment, the target named is T1, human TL1A (Fitzgerald, Prod. …). The experiment is described as follows: capture lift screen and Fab ELISA on coated TL1A. A general note: An ELISA detects its analyte on a solid surface through an enzyme-linked reagent.
As for B1, the binding result was “binds”. The entry for B2 is “binds”; for B3 it is “binds”.

Take B4: the binding result is reported as “binds”. The result for B5 reads “binds”. In the case of B6, the binding result is “binds”.

B7: the binding result is recorded as “binds”. The result for B8 reads “binds”; that for B9, “binds”. The entry for B10 is “binds”; for B11 it is “binds”. The entry for B12 is “binds”; for B13 it is “binds”; for B14 it is “binds”.

As to B15, the binding result was “binds”.

B16: the binding result is given as “binds”. On to B17, for which the binding result is “binds”.
